# Laboratory results as given in article PMC9285637 (Molecular cancer research : MCR, 2019).
# T1: mCherry-LacI-PALB2^WD40 (UniProt Q86YC2 841-1186)
# T1 sequence (looked up): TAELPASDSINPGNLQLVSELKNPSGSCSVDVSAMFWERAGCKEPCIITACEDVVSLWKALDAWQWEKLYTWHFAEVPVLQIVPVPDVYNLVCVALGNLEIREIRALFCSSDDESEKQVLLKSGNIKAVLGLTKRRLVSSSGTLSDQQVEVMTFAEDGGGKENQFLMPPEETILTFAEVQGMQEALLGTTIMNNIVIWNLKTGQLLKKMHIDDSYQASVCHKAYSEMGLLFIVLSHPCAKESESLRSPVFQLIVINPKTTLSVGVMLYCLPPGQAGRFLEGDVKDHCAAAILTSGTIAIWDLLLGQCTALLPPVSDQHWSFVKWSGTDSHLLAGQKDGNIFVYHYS
# T2: mCherry-LacI-PALB2^FL (UniProt Q86YC2 1-1186)
# T2 sequence (looked up): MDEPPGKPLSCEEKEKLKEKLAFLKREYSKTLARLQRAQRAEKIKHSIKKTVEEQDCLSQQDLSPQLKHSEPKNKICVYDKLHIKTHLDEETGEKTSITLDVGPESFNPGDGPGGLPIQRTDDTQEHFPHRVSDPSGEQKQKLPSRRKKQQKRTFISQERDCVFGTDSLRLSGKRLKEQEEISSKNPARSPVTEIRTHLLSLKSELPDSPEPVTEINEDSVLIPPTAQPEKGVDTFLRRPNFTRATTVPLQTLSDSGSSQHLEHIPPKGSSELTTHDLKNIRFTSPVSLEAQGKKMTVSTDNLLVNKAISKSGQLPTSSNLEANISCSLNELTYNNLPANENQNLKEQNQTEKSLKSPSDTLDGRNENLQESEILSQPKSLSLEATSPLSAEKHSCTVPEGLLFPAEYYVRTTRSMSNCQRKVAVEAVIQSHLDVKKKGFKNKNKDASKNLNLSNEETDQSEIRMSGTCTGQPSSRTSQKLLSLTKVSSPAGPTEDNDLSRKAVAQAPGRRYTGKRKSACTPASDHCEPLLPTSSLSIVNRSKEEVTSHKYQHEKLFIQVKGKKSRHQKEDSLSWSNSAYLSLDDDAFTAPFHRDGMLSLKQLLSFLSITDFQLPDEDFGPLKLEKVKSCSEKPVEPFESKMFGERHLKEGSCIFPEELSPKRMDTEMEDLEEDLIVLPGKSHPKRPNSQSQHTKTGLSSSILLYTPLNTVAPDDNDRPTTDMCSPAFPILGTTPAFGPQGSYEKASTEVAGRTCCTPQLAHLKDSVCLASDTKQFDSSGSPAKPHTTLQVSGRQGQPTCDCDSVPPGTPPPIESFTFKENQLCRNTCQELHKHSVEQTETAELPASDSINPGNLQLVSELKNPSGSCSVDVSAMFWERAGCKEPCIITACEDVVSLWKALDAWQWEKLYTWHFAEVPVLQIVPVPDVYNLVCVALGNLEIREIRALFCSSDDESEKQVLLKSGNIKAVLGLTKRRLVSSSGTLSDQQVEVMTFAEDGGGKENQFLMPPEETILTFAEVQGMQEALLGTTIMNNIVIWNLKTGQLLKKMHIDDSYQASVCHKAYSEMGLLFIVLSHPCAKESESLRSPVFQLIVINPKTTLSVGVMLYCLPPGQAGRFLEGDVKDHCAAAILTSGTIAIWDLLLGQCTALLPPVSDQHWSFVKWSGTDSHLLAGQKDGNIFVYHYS
# B1: GFP-USP22 (enzyme, human, UniProt Q9UPT9 1-525, looked up)
# chain: MVSRPEPEGEAMDAELAVAPPGCSHLGSFKVDNWKQNLRAIYQCFVWSGTAEARKRKAKSCICHVCGVHLNRLHSCLYCVFFGCFTKKHIHEHAKAKRHNLAIDLMYGGIYCFLCQDYIYDKDMEIIAKEEQRKAWKMQGVGEKFSTWEPTKRELELLKHNPKRRKITSNCTIGLRGLINLGNTCFMNCIVQALTHTPLLRDFFLSDRHRCEMQSPSSCLVCEMSSLFQEFYSGHRSPHIPYKLLHLVWTHARHLAGYEQQDAHEFLIAALDVLHRHCKGDDNGKKANNPNHCNCIIDQIFTGGLQSDVTCQVCHGVSTTIDPFWDISLDLPGSSTPFWPLSPGSEGNVVNGESHVSGTTTLTDCLRRFTRPEHLGSSAKIKCSGCHSYQESTKQLTMKKLPIVACFHLKRFEHSAKLRRKITTYVSFPLELDMTPFMASSKESRMNGQYQQPTDSLNNDNKYSLFAVVNHQGTLESGHYTSFIRQHKDQWFKCDDAIITKASIKDVLDSEGYLLFYHKQFLEYE
# B2: GFP-USP22^DUB (domain or fragment, human, UniProt Q9UPT9 164-525, looked up)
# chain: RRKITSNCTIGLRGLINLGNTCFMNCIVQALTHTPLLRDFFLSDRHRCEMQSPSSCLVCEMSSLFQEFYSGHRSPHIPYKLLHLVWTHARHLAGYEQQDAHEFLIAALDVLHRHCKGDDNGKKANNPNHCNCIIDQIFTGGLQSDVTCQVCHGVSTTIDPFWDISLDLPGSSTPFWPLSPGSEGNVVNGESHVSGTTTLTDCLRRFTRPEHLGSSAKIKCSGCHSYQESTKQLTMKKLPIVACFHLKRFEHSAKLRRKITTYVSFPLELDMTPFMASSKESRMNGQYQQPTDSLNNDNKYSLFAVVNHQGTLESGHYTSFIRQHKDQWFKCDDAIITKASIKDVLDSEGYLLFYHKQFLEYE
# Key:
# mCherry-LacI-PALB2^WD40 = molecular target: T1, mCherry-LacI-PALB2^WD40; experiment: LacO/LacI tethering recruitment assay
# mCherry-LacI-PALB2^FL = molecular target: T2, mCherry-LacI-PALB2^FL; experiment: LacO/LacI tethering recruitment assay
Binder,percent of cells with recruitment of GFP-USP22 to the LacO array (mCherry-LacI-PALB2^WD40) [%],percent of cells with recruitment of GFP-USP22 to the LacO array (mCherry-LacI-PALB2^FL) [%]
B1,37.5,35
B2,55,
